Assay results: the DeepSol protein solubility set

Assay: soluble on expression in E. coli; label from the status in PepcDB or PDB records

Sequence	soluble on expression in E. coli
SGSELIGRLAPRLGLAEPDMLRKAEEYLRLSRVKCVGLSARTTETSSAVMCLDLAASWMKCPLDRAYLIKLSGLNKETYQSCLKSFECLLGLNSNIGIRDLAVQFSCIEAVNMASKILKSYESSLPQTQQVDLDLSRPLFTSAALLSACKILKLKVDKNKMVATSGVKKAIFDRLCKQLEKIGQQVDREPGDVATPPRKRKKIVVEAPAKEMEKVEEMPHKPQKDEDLTQDYEEWKRKILENAASAQKATAE	soluble
AVSGLYSSSDDVIELTPSNFNREVIQSDGLWLVEFYAPWCGHCQRLTPEWKKAATALKDVVKVGAVNADKHQSLGGQYGVQGFPTIKIFGANKNKPEDYQGGRTGEAIVDAALSALR	soluble
HRYGDEIDALVEAFNRMRESLAVAYQQQQGMLQAVRESEALLRAIARRIPNGGVWVVDTDGRYIMFEGSLVESLGLSGQEALGRMPGDLFGEPLADRLVGCYRLALAGGTLSEEIEYRERVLWIQFAPLEDEHGAVMAAVALGID	not soluble
MKAYRIHVQGIVQAVGFRPFVYRIAHAHNLKGFVRNLGDAGVEIVIEGNEEDIEGFLVDLYKKKPPIARIDKVEKEEIPPQGFDRFYIEKSSTEKKGEGDSIIPPDIAICDDCLKELFDPTNKRYMYPFIVCTNCGPRFTIIEDLPYDRENTAMREFPMCEFCRSEYEDPLNRRYHAEPVACPTCGPSYRLYTNDGNEIVGDPLRKAAKLIDKGYIVAIKGIGGIHLACDATREDVVVELRKRIFRPQKPFAIMAKDLETIRTFAYVSPEEEEELTSYRRPIVALKKKEPFPLPENLAPGLHTIGVMLPYAGTHYILFHWSETPVYVMTSANFPGMPMIKDNEEAFEKLRDVADYLLLHNRRIPNRADDSVVRFVDGRRAVIRRSRGFVPLGIEIPFEYKGLAVGAGLMNAFGVSKSGKVYPSQYIGDTSKIEVLEFMRDAIRHFFKILRIDSLDLVVADLHPSYNTTKLGMEIAEEFGAEFLQVQHHYAHVASVMAEHNLEEVVGIALDGVGYGTDGKTWGGEVIYLGYEDVERLAHIEYYPLPGGDLASYYPLRALIGILSLNHDFEEVEKIIREFCPNAIKSLKYGETEFKVILRQLSSGINVAYASSTGRVLDAFSVLLNVSYRRHYEGEPAMKLESFAYQGKNDLNLTVPIEGEEIKVSELFEEVLELMGKVNPRDIAYSVHLALARAFAEVSVEKAKEFGVKTVVLGGGVGYNELIVKTIRKIVEGRELRFLTTYEVPRGDNGINVGQAFLGGLYLEGYLNREDLSI	soluble
MGSDKIHHHHHHMYLKETLDQFASIDNILKLLKKNPSFNKHCIQERLPQKTIITSNKQRKHIYIIEEGFMKLIFDDNKPRDFSYILSKGAFPFLPVYTEDIPEHTMMVALTDIVWWKIDISFFKGMMETEDPRNYLMLHQLAETRRRFYTIAYQEKLTSRESIYYSLSTMIEFGLRISEKIVELPEFLTYQILADHANTSKSYTSKVLGHLREEGILESQRKPWRINDVQKLQKLIEMNVPLVKIQKN	not soluble
MLPFAPQDEPWDREMEVFSGGGASSGEVNGLKMVDEPMEEGEADSCHDEGVVKEIPITHHVKEGYEKADPAQFELLKVLGQGSFGKVFLVRKKTGPDAGQLYAMKVLKKASLKVRDRVRTKMERDILVEVNHPFIVKLHYAFQTEGKLYLILDFLRGGDVFTRLSKEVLFTEEDVKFYLAELALALDHLHQLGIVYRDLKPENILLDEIGHIKLTDFGLSKESVDQEKKAYSFCGTVEYMAPEVVNRRGHSQSADWWSYGVLMFEMLTGTLPFQGKDRNETMNMILKAKLGMPQFLSAEAQSLLRMLFKRNPANRLGSEGVEEIKRHLFFANIDWDKLYKREVQPPFKPASGKPDDTFCFDPEFTAKTPKDSPGLPASANAHQLFKGFSFVATSIAEEYKITPITSANVLPIVQINGNAAQFGEVYELKEDIGVGSYSVCKRCIHATTNMEFAVKIIDKSKRDPSEEIEILMRYGQHPNIITLKDVFDDGRYVYLVTDLMKGGELLDRILKQKCFSEREASDILYVISKTVDYLHCQGVVHRDLKPSNILYMDESASADSIRICDFGFAKQLRGENGLLLTPCYTANFVAPEVLMQQGYDAACDIWSLGVLFYTMLAGYTPFANGPNDTPEEILLRIGNGKFSLSGGNWDNISDGAKDLLSHMLHMDPHQRYTAEQILKHSWITHRDQLPNDQPKRNDVSHVVKGAMVATYSALTHKTFQPVLEPVAASSLAQRRSMKKRTSTGL	soluble
RSKYNAKKVVIDNIKFDSKAEAAYYQQLKLLKMSGEVVSFDLQPEFVLQESFRKNGKLYRAIKYKADFLVRYSDGHEELIDIKGMLTKEFRIKQKLFELRYMQSIKCLKLKGRNFVEV	not soluble
MSLKHRIEYAITNAVFVKADELSYLSFRVSGKVIEVYKDLGDYVKRGEALAKLDPTYYELEKRTLEKKMSALLEKKKALEIKIQKLEKGLHISLSAKKLKVESLKKKREALREKLLQVEEKIKLVKLDWERYKSLFQKGLIPRRKFEEVDTNLKVLLHEREYLEKSIQEINTEIKRAKKGIENARNEFKTIEELKKELSSLEEEIKSLKERIKTAEQKIKDTVLIAPFDGVVAKRFISRGDVVRAGQPAFALVNPESFYVEVLLEETKLKGVKVGNKAYVRLDAYPDILFEGVVEEISPASAATFALVPRDVSAGEFTKVVQRIPVKIKITKGDLSLLRVGMGGEVEIRRTREGHHHHHH	soluble
MATAVVQRKGYDNVELSLSEDDDPVKEKKKSKGNEKKSSTESKSKESKETSKEEDLAQKKFLMTQKTQSMTEDEKEVKPKAPESQKPKKNSAEESNEKIKKEGSVKVETVASKVKPASSRVPPIASTPGKGSVDGEQKKKSTGCCIIL	soluble
APNVDLHCHSTVSDGSMPPAAVARRAHANGVDVWALTDHDEIGGVAEAAQAAAALGMRFVAGVEISVTWAGLTVHIVGLRVDPANEALVQGLRDTRAGRAARAVQIGERLAGLGMPGAYEGALPFAGNPELISRTHFARFLVEAGYCPDVQTVFNKYLGDDCPGHVPMQWASLAEAVGWIRGAGGCAVIAHPGRYKYSPMQFDALYDEFLQLGGTGIEVVTGSHTSEEARRYAEVARRHGFLASRGSDFHSPTESRVDLGRLPPLPPDLKPVWHDW	not soluble
MVKQRSELLFLYDVQWANPNGDPVDGNKPRIDEETGKNIVTDVRLKRTIRDYLYEYRHQEIFVREIAQDDDYIQDAKARAEDFLVKDGEKLDKSKLTLSEMKKIINDEVLRQCIDVRLFGVTLPIEKSSKEKSSITHTGPVQFKMGQSLHRVKLEYIKGTGAFASGGQMTQKTFREEYVLPYSLIAFYGVINETAARFTRLTEEDVELLVDAMWEGTKNLISRSKVGHVPRLLLRVVYQEPHFHIGELDKYISLHTEKAEEEIRDAQDYVLDVSRLIEVLAREKEKIANIELRQDERLVCNENLVDRLRQEGIVVDIR	not soluble
SNAMANFEDFLTLDLRIGTVTHAEEFKEARVPAIRLEIDFGELGMKQSSAQITKRYNPEDLIGQQIVAVVNFPPKRVAGFKSEVLVLGGVPEAGDVVLLQPNMELPNGTKIS	soluble
MPQSESNIALLIDADNAPASKIEAIVSEIAKYGVANIRKAYGNWKSPNLKAWEECLHEYAIRPVQQFDYTKGKNATDAAMIIDAMDLLYTQRLDAFAIVSSDCDFTPLVMRILTNGLKVYGFGEKKTPLPFVYACSTFLYLESIDQIENSEGATQSSTSVKKTGKELKQDAKLISLLRSAISSTIDDDGWSSLAEIGGHIKNQASFDSRNYGYAKLSSLFEAIDLFEIERKNRAIYVRNRQKKSATSKSLEHHHHHH	soluble
GSMPKPINVRVTTMDAELEFAIQPNTTGKQLFDQVVKTVGLREVWFFGLQYVDSKGYSTWLKLNKKVTQQDVKKENPLQFKFRAKFFPEDVSEELIQEITQRLFFLQVKEAILNDEIYCPPETAVLLASYAVQAKYGDYNKEIHKPGYLANDRLLPQRVLEQHKLTKEQWEERIQNWHEEHRGMLREDSMMEYLKIAQDLEMYGVNYFEIKNKKGTELWLGVDALGLNIYEHDDKLTPKIGFPWSEIRNISFNDKKFVIKPIDKKAPDFVFYAPRLRINKRILALCMGNHELYMRRRKPDTIEVQQMKAQARVDSSGRIVTD	soluble
HGSYIDITIDLKHYNGSVFDLRLSDYHPVKKVIDIAWQAQSVSMPPREGHWIRVVNKDKVFSGECKLSDCGITNGDRLEIL	soluble
MGSDKIHHHHHHMSERKPIPKSVKKVLRSEVGFGCPVKGCGNPYLEYHHFDPPVSVKPHNEPEGMIALCAQHHKKADGGAYTIEQLHALKKDKANAKLVRGNLDWLRKDLLAVVGGNFYYETPRIITIDNIDLVSLVRDEDGYLRLNVNMLSLEPDERIIIEENSWENIGSPLDLRSPPQGKELEISYHNGDYLYLRFIELQSFEQAQQRYETDVFKDITFPITAVEVNMTIAGTRIELTPISSQLGGIKMTGCLSSHCGGGVVIQNSGIQWKQNPVWKRKTLVEETEHPNVVKVNFGRR	not soluble
PKLSQDEIDDLKDVFELFAFWDGRDGAVDAFKLGDVCRCLGINPRNEDVFAVGGTHKMGEKSLPFEEFLPAYEGLMDCEQGTFADYMEAFKTFDREGQGFISGAELRHVLTALGERLSDEDVDEIIKLTDLQEDLEGNVKYEDFVKKVMAGPYPDK	soluble
MKLDAILWDYDGTLVNSVPKNIEITKAILAIVAPHLTGDNLPKYLHSEANYHYANHAAKNWQELYVDYYGMSHDEMLQAGGLWAEHQEKNQTPVTLFEGIDGVIKEFAQLPHGICSQNSQSNIRRVLSDNGISAPFKSIVGYDDVSNGHQKPDAYSGIKCVESIFGHAENRQLMYIGDHEADTQFARNIEQQLGGQSKVIAVAAAYSGAMPEHWSVQPDYVARTVDELFSIIAQHT	not soluble
ATSYMTCSAYQKVQDSEISFPAGVEVQVLEKQESGWWYVRFGELEGWAPSHYLVLDENEQPDPSGKE	soluble
MGSDKIHHHHHHMVVALQYRTDLLEIHRFTRFESSLAHLGFRHFQPLASLRPWVHRYFHLQVATNLPQSIEQTFYPDGGTSLQFYFPAPSLNTNSDEPKVVFHCGQSLHSHAFVPGIEQMIVRFHPGGAFHLLGIAVQEIQQTSSHTVIEATQLHLPGLNQLLSQLADTNQPMQRIAQLEQWLLQLIKPQLDRGTWSTAGIVQMSLPRLIQPQTRLENFYGQLALSRRQFERRFKQETGLSPAQLQQLNRVKIARDLLSQSPELNLAQVAFDCGFYDQAHLHQHFVRVTQQTPGQYKKRKMSQISNLTQR	not soluble
GLFQFLRIVMRPSDQLLGLDEKGTIRTIDETGKASPIPGMVIYRFNSPLTYFNAPYFKRRLLEHAEQNKDVSCVVVDAVSSFTHLDLSVMATLADIHEVLKKRGIRLVLAGRKRRLRQWCELTGISTSEGGILLRADMYLAIKLSGSYLSAVGEGIVPTVQKEPDLEQPPKPIPEVA	not soluble
MGSDKIHHHHHHMNPVLKSSKLVIFDLDGTLYEGTDHFDYYANHLKQNVPQSQQLDFWRDYTAMKDGHHPVQIGKGYDVKRDYILTIDPMTISVQSVQTWDGSYVPAEEWETLYSDPVSFDFETIIAVGDGWWYPFVTAKHYGVEDCYASYVATKEYMVTDEFELTPLPGLREGLIELKATKEIVLVTNSDREDVQRLLHELHLHDVFNHIITSAKKPTRTTDIFKEVVHQYEVDMSQVVSVGDNFMNEIAQALTLGMQGIYIHPQRASEVAHDHLTVIRSVVELFKN	not soluble
MAANIQQQFGEQLLRAAQVVEEQIDQEMNKLENLEEDDLEVIRRQRMEQMKKAQKDRIEMLSHGHGKYEEVADEKEFFEATKKSDKVVCLFYLPGNFRCKIVDKHFEILARKHVGTRFIHVNAEKVHFLTTRLNIRVIPSIAIVVKQQTVDYIRGFDELGGKDEFTTETMENRLARSEVLTVEKKHTAPAKKKIIRSGVEEYDNEEDW	not soluble
